The record followed here is patent US20240182536A1.

Experiment in all cases: cell-based or functional assay
In assay [1] the target is interleukin 18 binding protein (IL-18BP) (UniProt O95998).
Assay [2] concerns the target T1, IL-18 receptor (IL-18Rα and IL-18Rβ) (UniProt Q13478).
T1 sequence (looked up) 1: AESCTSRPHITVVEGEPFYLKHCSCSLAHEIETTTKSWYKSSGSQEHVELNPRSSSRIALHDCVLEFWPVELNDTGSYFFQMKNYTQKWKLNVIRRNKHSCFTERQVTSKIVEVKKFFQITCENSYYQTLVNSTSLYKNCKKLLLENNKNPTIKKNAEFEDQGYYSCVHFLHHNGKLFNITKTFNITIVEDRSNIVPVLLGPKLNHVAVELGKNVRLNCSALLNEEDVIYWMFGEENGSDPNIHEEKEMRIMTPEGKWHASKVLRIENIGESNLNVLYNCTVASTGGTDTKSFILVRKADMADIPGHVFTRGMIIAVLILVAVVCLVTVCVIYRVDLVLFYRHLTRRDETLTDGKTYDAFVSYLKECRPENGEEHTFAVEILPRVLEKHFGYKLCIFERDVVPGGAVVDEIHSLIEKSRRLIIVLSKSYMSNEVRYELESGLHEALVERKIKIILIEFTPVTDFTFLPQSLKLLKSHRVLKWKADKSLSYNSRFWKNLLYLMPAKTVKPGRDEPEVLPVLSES
T1 sequence (looked up) 2: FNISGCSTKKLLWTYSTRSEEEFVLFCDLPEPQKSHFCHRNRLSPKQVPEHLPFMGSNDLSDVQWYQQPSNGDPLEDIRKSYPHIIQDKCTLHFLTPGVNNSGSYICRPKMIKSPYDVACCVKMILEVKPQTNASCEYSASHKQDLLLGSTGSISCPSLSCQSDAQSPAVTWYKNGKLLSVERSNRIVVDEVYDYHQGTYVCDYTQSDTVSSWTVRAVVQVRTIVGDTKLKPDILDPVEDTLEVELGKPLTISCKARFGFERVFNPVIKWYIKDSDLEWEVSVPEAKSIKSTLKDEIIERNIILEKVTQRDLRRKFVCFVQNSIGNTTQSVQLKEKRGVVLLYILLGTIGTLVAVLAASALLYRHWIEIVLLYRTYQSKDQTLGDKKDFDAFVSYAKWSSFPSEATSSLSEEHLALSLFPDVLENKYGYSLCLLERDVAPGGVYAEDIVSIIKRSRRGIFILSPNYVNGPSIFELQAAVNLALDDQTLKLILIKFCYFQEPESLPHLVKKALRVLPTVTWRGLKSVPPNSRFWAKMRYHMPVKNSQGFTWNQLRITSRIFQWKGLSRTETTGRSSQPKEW

Assay [3] has as its target human IL-18 binding protein (human) (UniProt O95998).
Assay [4] concerns the target IL-18 binding protein (IL-18BP) (UniProt O95998).
Assay [5] deals with IL-18 receptors on HEK-Blue IL-18 reporter cells (UniProt Q13478).
The target of assay [6] is human IL-18 binding protein (human) (UniProt O95998). The source holds these as a separate data set.
The target of assay [7] is IL-18 receptors on HEK-Blue IL-18 reporter cells (UniProt Q13478). This is another data set of the same source.

Where “and” joins values, the source holds several entries; their conditions need not be identical. Equal values may be shown once. Read-outs that look alike come from different tables or passages of the source.

Sequence of WT-monoFc (Fc fusion) (chain): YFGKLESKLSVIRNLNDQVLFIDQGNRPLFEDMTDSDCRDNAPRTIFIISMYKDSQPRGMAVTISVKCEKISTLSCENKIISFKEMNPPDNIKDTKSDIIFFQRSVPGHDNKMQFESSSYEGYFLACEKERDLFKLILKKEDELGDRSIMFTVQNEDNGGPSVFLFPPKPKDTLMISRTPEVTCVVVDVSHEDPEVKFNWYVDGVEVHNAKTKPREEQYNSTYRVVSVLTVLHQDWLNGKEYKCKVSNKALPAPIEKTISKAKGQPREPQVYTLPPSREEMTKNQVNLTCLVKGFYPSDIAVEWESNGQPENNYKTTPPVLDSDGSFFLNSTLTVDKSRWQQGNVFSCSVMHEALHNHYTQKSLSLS
Sequence of WT-hIL-18-monoFc (Fc fusion) (chain): as above
Sequence of WT-monoFc (wild-type human IL-18 linked to monoFc) (Fc fusion) (chain): as above
Sequence of IL-18 binding protein (IL-18BP) (O95998 31-194 limits assumed): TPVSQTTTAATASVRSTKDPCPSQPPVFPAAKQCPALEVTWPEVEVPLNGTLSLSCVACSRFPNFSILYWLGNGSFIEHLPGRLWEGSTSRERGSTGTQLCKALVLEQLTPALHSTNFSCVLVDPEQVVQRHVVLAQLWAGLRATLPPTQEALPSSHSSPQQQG
Sequence of interleukin 18 binding protein (IL-18BP) (O95998 31-194 limits assumed): as above
Sequence of human IL-18 binding protein (human) (O95998 31-194 limits assumed): as above

Consider “hIL18(G3P, E6K, D54Y, S55P, T63S, N91S, R104Q)-monoFc (Fc fusion)”, for which the EC50 (pM), PBMC IFN gamma assay, + 300 nM BP in assay [1] came out at 74.5 pM. Besides, in assay [2], the EC50 (pM), PBMC IFN gamma assay was 19.5 pM.

hDR-18-monoFc (Fc fusion): in assay [3], the HEK-Blue activity, +100 nM BP, DF-10000 was found to be 2.21; the HEK-Blue activity, +100 nM BP, DF-100,000 was 2.19; the HEK-Blue activity, +100 nM BP, DF-1,000,000 is 2.1; the Ratio (-BP/+BP), DF-10000 is 0.99. In assay [3], the Ratio (-BP/+BP), DF-100,000 came out at 1.03 and the Ratio (-BP/+BP), DF-1,000,000 was determined as 1.03. In assay [4], the Activity, +100 nM BP, DF-1000002 worked out at 2.01; the Activity, +100 nM BP, DF-5000003 came out at 1.95; the Activity, +100 nM BP, DF-25000004 is 1.59; the Ratio (-BP/+BP), DF-1000005 worked out at 0.99. In assay [4], the Ratio (-BP/+BP), DF-5000006 came out at 0.98 and the Ratio (-BP/+BP), DF-25000007 was found to be 0.93. In assay [5], this substance gave an Activity, No BP, DF-100000 of 2; an Activity, No BP, DF-500000 of 1.91; an Activity, No BP, DF-2500000 of 1.49; an HEK-Blue activity, No BP, DF-10000 of 2.19. In assay [5], this substance returned an HEK-Blue activity, No BP, DF-100,000 of 2.26 and an HEK-Blue activity, No BP, DF-1,000,000 of 2.16.

In the case of G3V/M60K-HSA-his-avi, in assay [3], the HEK-blue EC50 (pM) + 300 nM IL-18BP was found to be 3.83 pM. In assay [5], this substance returned an HEK-blue EC50 (pM) - IL-18BP of 0.19 pM.

Regarding G3V/M60K-monoFc (Fc fusion), in assay [3], the HEK-blue EC50 (pM) + 300 nM IL-18BP was determined as 1.57 pM. This substance had an HEK-blue EC50 (pM) - IL-18BP in assay [5] of 0.15 pM.

Regarding “wt-monoFc (from UniProt Q14116 37-193; P01857 119-327) (Fc fusion)”, in assay [4], the Activity, +100 nM BP, DF-1000002 is 0.11; the Activity, +100 nM BP, DF-5000003 came to 0.08; the Activity, +100 nM BP, DF-25000004 was found to be 0.07; the Ratio (-BP/+BP), DF-1000005 came out at 17.4. Moreover, in assay [4], the Ratio (-BP/+BP), DF-5000006 was 17.4 and the Ratio (-BP/+BP), DF-25000007 was found to be 10.5. Besides, in assay [5], the Activity, No BP, DF-100000 worked out at 1.94; the Activity, No BP, DF-500000 is 1.43; the Activity, No BP, DF-2500000 came to 0.77.

Consider WT-monoFc (Fc fusion), for which, in assay [1], the HEK-blue EC50 (pM) + 300 nM BP is more than 500 pM and the Ratio was 947. For the same substance, the HEK-blue EC50 (pM) - BP in assay [5] amounted to 0.52 pM.

For the substance G3T/E6K/K53A-monoFc (Fc fusion), the HEK-blue EC50 (pM) + 300 nM IL-18BP in assay [3] was determined as 2.81 pM. The HEK-blue EC50 (pM) - IL-18BP in assay [5] came out at 0.06 pM.

In the case of WT-hIL-18-monoFc (Fc fusion), in assay [3], the HEK-Blue activity, +100 nM BP, DF-10000 came to 0.92; the HEK-Blue activity, +100 nM BP, DF-100,000 came to 0.29; the HEK-Blue activity, +100 nM BP, DF-1,000,000 was found to be 0.24; the HEK-blue EC50 (pM) + 300 nM BP worked out at 221 pM. In addition, in assay [3], the HEK-blue EC50 (pM) + 300 nM IL-18BP was more than 500 pM; the Ratio (-BP/+BP), DF-10000 was 2.45; the Ratio (-BP/+BP), DF-100,000 came out at 7.16; the Ratio (-BP/+BP), DF-1,000,000 is 7.32. In assay [5], this substance gave an HEK-Blue activity, No BP, DF-10000 of 2.24; an HEK-Blue activity, No BP, DF-100,000 of 2.08; an HEK-Blue activity, No BP, DF-1,000,000 of 1.75; an HEK-blue EC50 (pM) - BP of 0.458 pM. Also, the HEK-blue EC50 (pM) - IL-18BP in assay [5] amounted to 0.29 pM. Also, the HEK-blue EC50 (pM) + 1000 nM BP in assay [6] was 99.8 pM. Moreover, the HEK-blue EC50 (pM) - BP in assay [7] amounted to 0.495 pM.

On to “WT-monoFc (wild-type human IL-18 linked to monoFc) (Fc fusion)”, for which, in assay [1], the EC50 (pM), PBMC IFN gamma assay, + 300 nM BP was found to be 611 pM; the Ratio (HEK-blue EC50, + 100 nM BP against - BP) was 520 and 360 and 338. Also, in assay [2], the EC50 (pM) - BP, HEK-blue re-screening was 0.51 pM and 0.43 pM and 0.6 pM; the EC50 (pM), PBMC IFN gamma assay came out at 96.8 pM.

For the substance “IL-18 variant S36E, D40A, N41M, K53T, S55Y, P107S (ligand)”, in assay [1], the HEK-Blue activity, +100 nM BP, DF-10000 worked out at 0.25; the HEK-Blue activity, +100 nM BP, DF-100,000 amounted to 0.11; the HEK-Blue activity, +100 nM BP, DF-1,000,000 turned out to be 0.09; the Ratio (-BP/+BP), DF-10000 was determined as 0.97. In assay [1], the Ratio (-BP/+BP), DF-100,000 amounted to 1.02 and the Ratio (-BP/+BP), DF-1,000,000 turned out to be 1.01. Besides, in assay [5], the HEK-Blue activity, No BP, DF-10000 was found to be 0.24; the HEK-Blue activity, No BP, DF-100,000 came to 0.11; the HEK-Blue activity, No BP, DF-1,000,000 is 0.09.

As for G3T/M60K-HSA-his-avi, in assay [3], the HEK-blue EC50 (pM) + 300 nM IL-18BP was determined as 4.25 pM. The substance also returned an HEK-blue EC50 (pM) - IL-18BP in assay [5] of 0.36 pM.

As to “hIL18(G3P, E6K, D54Y, S55P, T63S, N91S, R104Q, Q154R)-monoFc (Fc fusion)”, the EC50 (pM), PBMC IFN gamma assay, + 300 nM BP in assay [1] was 64.1 pM. This substance returned an EC50 (pM), PBMC IFN gamma assay in assay [2] of 85.6 pM.

G3T/M60K-monoFc (Fc fusion): in assay [3], the HEK-blue EC50 (pM) + 300 nM IL-18BP worked out at 1.78 pM. In assay [5], this substance displayed an HEK-blue EC50 (pM) - IL-18BP of 0.21 pM.
